In article PMC2172957:

Biological target: neuronal receptor for agrin (mouse (endogenous in cortical neurons))
Experiment: immunostaining of cells or tissue

reduction of C-Ag20z8 labeling at a 1:1 molar ratio of C-Ag20z8 to rC-Ag (y4z8): 30%
Substance: rC-Ag_(y4z8), soluble 95-kD COOH-terminal fragment of rat agrin (domain or fragment)
